Laboratory results: US10889844B2, “Methods of degrading or hydrolyzing a polysaccharide” (Novozymes A/S, priority 2010, dated 2021)
Entries after “also recorded” stand apart in the source; their conditions may differ.

What was measured:
[1] = tested on: N-terminal CBM33 domain of CelS2; test: Metal reactivation of EDTA treated N-terminal CBM33 domain of CelS2 (HPAEC, FIG. 31); assay type: biochemical, Streptomyces coelicolor A3(2); settings: for reactivation of EDTA treated enzyme: 10 μM metal ion, 20 μM EDTA, 1.7 mM reduced glutathione, pH 6.6
Protocol: […]; Mg^2+, Fe^3+, Zn^2+, Co^2+, Ca^2+, Cu^2+). […].
To identify which is the preferred metal for CelS2, the activity of the N-terminal CBM33 domain of CelS2 was inhibited by EDTA and different metals were tested to reactivate the protein.

[2] = Cellulase boosting properties of CelS2 at various pHs with monocomponent Cel7A; assay type: biochemical; settings: Cel7A
Text: When probing the cellulose boosting properties of CelS2 at various pHs using monocomponent Cel7A as the cellulose hydrolytic component, pH 5.5 came out as the optimal pH for activity. […] The most obvious reason for the decrease in cellulose hydrolysis at increasing pH is the pH stability and efficiency of Cel7A. […] CelS2 is a bacterial enzyme that originates from Streptomyces species that are known to grow optimally on cellulosic substrates in approximately neutral pH conditions (Kontro et al., 2005, Letters in Applied Microbiology 41: 32-38.).

[3] = CBP21 reaction speed and degree of substrate oxidation (UHPLC of oxidized chitooligosaccharides); assay type: biochemical
Protocol: FIGS. 16A and 16B show the speed and extent of oxidative cleavage by CBP21 activity. […] After five hours, approximately 4.9% of the total sugars (theoretical number based on chitin concentration) are oxidized*. […] The degree of oxidation was determined by rapid conversion of the treated chitin with a large dose of a chitinase cocktail followed by UHPLC detection of oxidized dimers (filled diamonds) and trimers (filled triangles), as described in the Materials and Methods section. The linear part of the reaction represents an oxidation rate of approximately 1 per minute**. Maximum levels are reached after 2-3 hours and represent a degree of oxidation of 7.6% of the total sugars (theoretical number based on chitin concentration)***. Data in both panels are mean+/−SD (N=3); error bars (not visible for every point) indicate SD.
*The end concentrations of oxidized trimer and tetramer are 53 and 55 μM, respectively, giving rise to a total of 108 μM GlcNAcA. The molar concentration of GlcNAc in the solution is 2217 μM. Thus the degree of oxidation is 108/2217; in other words 4.9% of the sugars are GlcNAcA. **The rates calculated for oxidized dimer and oxidized trimer are 0.68 and 0.60 μM/min. […] The molar concentration of GlcNAc in the solution is 2217 μM. Thus the degree of oxidation is 168/2217; in other words 7.6% of the sugars are GlcNAcA.
Fractions were dried under vaccum (SpeedyVac), and resuspended in 50 μL MilliQ water. Purity was verified by MALDI-TOF MS. Isolated GlcNAc3GlcNAcA or GlcNAc4GlcNAcA were each incubated for 2 hours at 37° C. with 7.0 μM of a pure recombinant family 19 chitinase (ChiG from Streptomyces coelicolor (Hoell et al., 2006, FEBS J. 273: 4889)) resulting in production of equimolar amounts of GlcNAc2 and GlcNAcGlcNAcA or GlcNAc2GlcNAcA, respectively. The amount of GlcNAc2 resulting from the hydrolysis was estimated using a predetermined standard curve. Response factors for the GlcNAcA containing oligosaccharides were obtained by determining GlcNAcGlcNAcA/GlcNAc2 and GlcNAc2GlcNAcA/GlcNAc2 peak area ratios and found to be 0.71 and 0.81, respectively. A response factor for GlcNAc3GlcNAcA was approximated to be 0.88 by extrapolation of the two experimentally determined response factors. Using the response factors determined, GlcNAcGlcNAcA and GlcNAc2GlcNAcA peaks could be quantified using GlcNAc2 for calibration. […] Additionally, the reactions contained 0.45 mg/mL beta-chitin, 1.0 μM CBP21 and 0.5 ChiC μM in 20 mM Tris-HCl pH 8.0.
The reactions were incubated at 37° C. in an Eppendorf Thermo mixer with shaking at 1000 rpm, and sampled at 30, 60, 120 and 300 minutes. All samples were mixed 1:1 with 100% acetonitrile in order to stop the reaction and soluble products were analyzed by UHPLC. Separation of the oxidized oligosaccharides and GlcNAc2 was achieved using a column temperature of 30° C. and a flow of 0.4 mL/min, with a gradient starting at 80% ACN (A):20% 15 mM Tris-HCl pH 8.0 (B) for 4.5 minutes, followed by an 11 minute gradient to 63% A: 37% B which was held for 3.5 minutes. Column reconditioning was achieved by a two minute gradient to initial conditions and subsequent running at initial conditions for 5 minutes. Eluted oligosaccharides were monitored by recording absorption at 205 nm. Chromatograms were recorded, integrated and analysed using the ChemStation rev. B.04.02 chromatography software (Agilent Technologies).
In order to approximate the rate of the CBP21 oxidohydrolytic activity, reactions containing 0.45 mg/mL beta-chitin, 1.0 μM CBP21 and 1.0 mM reduced glutathione in 20 mM Tris-HCl pH 8.0 were incubated at 37° C. and sampled at 10, 15, 30,45, 60 and 300 minutes. […]

[4] = Chitin solubilization by CBP21: soluble oxidized products (MALDI-TOF MS, UHPLC); assay type: biochemical; settings: 2.0 mg/mL beta-chitin, 1.0 mM ascorbic acid, 20 mM Tris pH 8.0, 37° C.
Protocol: Two microliter of a 9 mg/mL mixture of 2,5-dihydroxybenzoic acid (DHB) in 30% acetonitrile was applied to a MTP 384 target plate ground steel TF (Bruker Daltonics). One microliter sample was then mixed into the DHB droplet and dried under a stream of air. The samples were analyzed with an Ultraflex MALDI-TOF/TOF instrument (Bruker Daltonics GmbH, Bremen, Germany) with a Nitrogen 337 nm laser beam. The instrument was operated in positive acquisition mode and controlled by the FlexControl 3.3 software package. All spectra were obtained using the reflectron mode with an acceleration voltage of 25 kV, a reflector voltage of 26, and pulsed ion extraction of 40 ns in the positive ion mode. The acquisition range used was from m/z 0 to 7000. […] Post-source decay (PSD) spectra using the Bruker Daltonics LIFT system were recorded at 8 kV precursor ion acceleration voltage and fragment acceleration (LIFT voltage 19 kV). […]
UHPLC was run on an Agilent 1290 Infinity UHPLC system equipped with diode array detector, set up with a Waters Acquity UPLC BEH amide column (2.1×150 mm with a 2.1×30 mm pre column both having a column material particle size of 1.7 μm) using 5 μL sample injections. […] Eluted oligosaccharides were monitored by recording absorption at 205 nm. Chromatograms were recorded, integrated and analysed using the ChemStation rev. […]

[5] = Time course of filter paper cellulose degradation by […] with CelS2 (FIG. 25); assay type: biochemical; settings: 10 mg/ml filter paper, 0.8 μg/ml CC, pH 5.5
Protocol: In reactions where no CelS2 was present, 40 μg/ml purified BSA was added in order to maintain an identical protein load. […] Data are mean+/−SD (N=3); error bars indicate SD.

[6] = 0.1 mg/mL beta-chitin, 0.5 μM ChiC, 1.0 mM ascorbic acid, pH 8.0
Protocol: CBP21-like and GH61 proteins contain two highly conserved histidines (H28 and H114 in CBP21), one of which is the N-terminal histidine of the secreted mature protein.
Isocratic HPLC was run on a Dionex Ultimate 3000 HPLC system set up with a 4.6×250 mm Amide-80 column (Tosoh Bioscience, Montgomeryville, Pa., USA) with an Amide-80 guard column. The mobile phase consisted of 70% acetonitrile: 30% MilliQ H2O and the flow rate was 0.7 ml/min. Eluted oligosaccharides were monitored by recording absorption at 190 nm. Chromatograms were recorded, integrated and analysed using the Chromeleon 6.8 chromatography software (Dionex). […] A standard solution containing 0.10 mM (GlcNAc)2 was analyzed at regular intervals during the sample series, and the resulting average values (displaying standard deviations of less than 3%) were used for calibration.
For the sake of experimental simplicity and throughput, the degradation of chitin in reactions with ChiC and CBP21 was quantitatively assessed by measuring concentration of the dominant product, (GlcNAc)2, only.
The reaction was incubated at 37° C. and sampled at regular time intervals. Chitin degradation was measured by determining the concentration of (GlcNAc)2 by HPLC.

[7] = Filter paper degradation by […] with CelS2 or E7 (FIG. 20), sugars by HPLC; assay type: biochemical
Protocol: Reactions were run in 50 mM Bis-tris/HCl pH 6.5, 1 mM MgCl2, at 50° C. and 900 rpm (horizontal agitation). Control reactions containing the cellulosic substrate suspended in the same buffer as used for the enzyme assays gave no detectable signal for either glucose or cellobiose.
The mobile phase consisted of 5 mM sulfuric acid and the flow rate used was 1.0 ml/min. Eluted glucose and cellobiose were monitored by recording refractive index. Quantification was obtained by running glucose and cellobiose standards.
Assays performed to evaluate the function of E7 and CelS2 were set up using a variety of cellulosic substrates (AVICEL®, filter paper and steam exploded wood chips from poplar), at either pH 5.5 (20 mM sodium acetate buffer), 6.5 (20 mM Bis-Tris buffer) or 8.0 (20 mM Tris buffer) in reaction mixtures containing 1.0 mM MgCl2.

[8] = Soluble products released from AVICEL by CBM33 proteins (MALDI-TOF MS, HPAEC); assay type: biochemical; settings: with external electron donor (ascorbic acid or reduced glutathione)
Protocol: The main peaks are annotated with molecular weight and degree of polymerization (DP).
The DP of the oxidized cellooligosaccharides is indicated by n, where n=3 (the shortest labelled oxidized cellooligosaccharide has a DP of three (=n)). […] Peak annotation was performed by comparing the chromatogram with the chromatogram obtained for a chemically prepared mixture of oxidized cellooligosaccharides with lengths varying from DP1 to DP10.
The main peaks are annotated with molecular weight and degree of polymerization (DP). All annotated peaks are Na adducts of native cellooligosaccharides, oxidized cellooligosaccharides (denoted “ox”) or the sodium salts of oxidized cellooligosaccharides.
Products were analyzed after 20 hours of incubation in 20 mM ammonium acetate buffer pH 5.0, 1 mM MgCl2 at 50° C. and 900 rpm (vertical agitation).
Separation of native and oxidized cellooligosaccharides was achieved using a Dionex Bio-LC equipped with a CarboPack PA1, a column temperature of 30° C. and a flow of 0.25 ml/min, with starting conditions, i.e., 0.1 M NaOH. A stepwise linear gradient with increasing amounts of sodium acetate was applied, going from 0.1 M NaOH and 0.1 M sodium acetate in 10 minutes, then to 0.1 M NaOH and 0.3 M sodium acetate for 25 minutes then increasing to 0.1 M NaOH and 1.0 M sodium acetate at 30 minutes which was kept for 10 minutes. Column reconditioning was achieved by a one minute gradient to initial conditions and subsequent running at initial conditions for 14 minutes. Eluted oligosaccharides were monitored by PAD detection. Chromatograms were recorded and analysed using Chromeleon 7.0 Peak identification was achieved by a procedure including the following steps: oxidized cellooligosaccharides were separated using a Dionex Ultimate 3000 UHPLC system carrying a Hypercarb 150×2.1 mm column (Thermo Scientific) running a gradient of water/0.1% TFA and acetonitrile/0.1% TFA (from 20 to 80% acetonitrile) according to the method developed by Westphal et al., 2010, Journal of Chromatography A 1217: 689-695. Eluted peaks were manually fractioned, freeze-dried, re-dissolved in MilliQ water and identified using MALDI-TOF MS. Pure oxidized cellooligosaccharides with known identity were then analyzed using the HPEAC method described above in order to establish the identity of the oxidized cellooligosaccharides generated by CelS2 and E7.

[9] = Filter paper cellulose degradation by […] with E7 (FIG. 28); assay type: biochemical
Protocol: 1 μM of the N-terminal CBM33 domain of CelS2 was incubated with 10 mg/ml AVICEL® in the presence of 0.8 mM of one of the reductants, or in the absence of any reductant. Reactions were run in 50 mM succinate buffer pH 5.5, 1 mM MgCl2, at 50° C. and 900 rpm (vertical agitation) for 20 hours. […] (glucose and cellobiose reported as [Glc]) released after incubation of 0.08 μl/ml […]™ (CC) in the presence or absence of 1 μM E7 and 2 mM reduced glutathione (RG) as external electron donor with 2 mg/ml filter paper cellulose. Reactions were incubated in 20 mM sodium acetate buffer pH 5.5, 1 mM MgCl2, at 50° C. and 900 rpm (horizontal agitation) for up to 50 hours.

[10] = 1.0 μM CBP21 alone, 0.45 mg/mL beta-chitin

**Q.** What does the source list for `[Cu+2]` [Cu^2+]?
**A.** reactivation of EDTA treated enzyme [1]: reactivated the enzyme; reactivation of EDTA treated enzyme ([1]; listed as copper): able to reactivate CelS2; effect on CBM33 action at higher metal concentration ([1]; concentrations in the 1 mM range, not shown): inhibits CBM33 action

B1: Cel7A: family GH7 cellulase from Hypocrea jecorina purified from CELLUCLAST (protein, UniProt P62694 18-513, looked up)
Exoglucanase 1: QSACTLQSETHPPLTWQKCSSGGTCTQQTGSVVIDANWRWTHATNSSTNCYDGNTWSSTLCPDNETCAKNCCLDGAAYASTYGVTTSGNSLSIGFVTQSAQKNVGARLYLMASDTTYQEFTLLGNEFSFDVDVSQLPCGLNGALYFVSMDADGGVSKYPTNTAGAKYGTGYCDSQCPRDLKFINGQANVEGWEPSSNNANTGIGGHGSCCSEMDIWEANSISEALTPHPCTTVGQEICEGDGCGGTYSDNRYGGTCDPDGCDWNPYRLGNTSFYGPGSSFTLDTTKKLTVVTQFETSGAINRYYVQNGVTFQQPNAELGSYSGNELNDDYCTAEEAEFGGSSFSDKGGLTQFKKATSGGMVLVMSLWDDYYANMLWLDSTYPTNETSSTPGAVRGSCSTSSGVPAQVESQSPNAKVTFSNIKFGPIGSTGNPSGGNPPGGNRGTTTTRRPATTTGSSPGPTQSHYGQCGGIGYSGPTVCASGTTCQVLNPYYSQCL
**Q.** Which “cellulase activity at pH 8.0” value [2] does the source give for B1 here?
**A.** close to inactive

B2: CBP21: chitin-binding protein of Serratia marcescens, single-domain CBM33 protein (SEQ ID NO: 4) (protein, listed as Serratia marescens)
chain: MNKTSRTLLSLGLLSAAMFGVSQQANAHGYVESPASRAYQCKLQLNTQCGSVQYEPQSVEGLKGFPQAGPADGHIASADKSTFFELDQQTPTRWNKLNLKTGPNSFTWKLTARHSTTSWRYFITKPNWDASQPLTRASFDLTPFCQFNDGGAIPAAQVTHQCNIPADRSGSHVILAVWDIADTANAFYQAIDVNLSK
**Q.** With B2 as the molecule, how does the “rate calculated for oxidized dimer” value [3, 10] read?
**A.** 0.68 µM/min

**Q.** What about the “rate calculated for oxidized trimer” value [3, 10] of the same molecule?
**A.** 0.60 µM/min

**Q.** And the “rate of oxidized products generated (dimer + trimer)” value [3, 10]?
**A.** 1.28 µM/min

**Q.** And the “end concentration of oxidized tetramer” value ([3]; CBP21 + ChiC, five hours)?
**A.** 55 µM

**Q.** What about the “end concentration of oxidized trimer” value ([3]; CBP21 + ChiC, five hours) of the same molecule?
**A.** 53 µM

**Q.** What about the “total GlcNAcA” value ([3]; CBP21 + ChiC, five hours) of the same molecule?
**A.** 108 µM

**Q.** And the “oxidized dimer produced at maximum levels” value ([3]; CBP21 alone)?
**A.** 93 µM

**Q.** And the “oxidized trimer produced at maximum levels” value ([3]; CBP21 alone)?
**A.** 75 µM

**Q.** What about the “time at which maximum levels of oxidized sugars are reached” value ([3]; CBP21 alone) of the same molecule?
**A.** 2 to 3 h

**Q.** What about the “total GlcNAcA at maximum levels” value ([3]; CBP21 alone) of the same molecule?
**A.** 168 µM

**Q.** What about the “production of soluble oxidized oligosaccharides from beta-chitin” value [4] of the same molecule?
**A.** soluble products are dominated by even numbered short oligosaccharides with acidic reducing ends

**Q.** And the “effect on CELLUCLAST (CC) production of soluble glucose over time” value [5]?
**A.** did not affect CC efficiency

**Q.** What about the “potentiating effect on chitinase (ChiC) efficiency” value [6] of the same molecule?
**A.** promotes chitin degradation by ChiC considerably better in the presence of ascorbic acid

B3: E7: single domain CBM33 from Thermobifida fusca (SEQ ID NO: 6) (protein, listed as Thermobifida fusca)
chain: MHRYSRTGKHRWTVRALAVLFTALLGLTQWTAPASAHGSVINPATRNYGCWLRWGHDHLNPNMQYEDPMCWQAWQDNPNAMWNWNGLYRDWVGGNHRAALPDGQLCSGGLTEGGRYRSMDAVGPWKTTDVNNTFTIHLYDQASHGADYFLVYVTKQGFDPTTQPLTWDSLELVHQTGSYPPAQNIQFTVHAPNRSGRHVVFTIWKASHMDQTYYLCSDVNFV
**Q.** With B3 as the molecule, how does the “increase of glucose yield versus CELLUCLAST only” value (“increase” for short) ([7]; no external electron donor, 24 hours) read?
**A.** ~3.0 fold

**Q.** What about the “increase” value ([7]; no external electron donor, 120 hours) of the same molecule?
**A.** ~3.5 fold

**Q.** What about the “increase” value ([7]; with external electron donor (1 mM reduced glutathione), 24 hours) of the same molecule?
**A.** 3.5 fold

**Q.** And the “increase” value ([7]; with external electron donor (1 mM reduced glutathione), 120 hours)?
**A.** ~4.5 fold

**Q.** And the “release of soluble native/oxidized cellooligosaccharides from AVICEL” value [8]?
**A.** soluble oligomeric products were observed

**Q.** What about the “effect on CELLUCLAST activity” value ([9]; 1 μM E7, 0.08 μl/ml CC, 2 mg/ml filter paper, pH 5.5) of the same molecule?
**A.** acts in synergy with CELLUCLAST™; also recorded: prolongs cellulase activity over time

**Q.** What about the “Glc or Glc2 released without cellulases” value ([9]; E7 in absence of cellulases) of the same molecule?
**A.** did not yield detectable amounts of Glc or Glc2

B4: CBM33 domain: recombinantly produced N-terminal CBM33 domain of CelS2 (SEQ ID NO: 22) (protein)
chain: HGVAMMPGSRTYLCQLDAKTGTGALDPTNPACQAALDQSGATALYNWFAVLDSNAGGRGAGYVPDGTLCSAGDRSPYDFSAYNAARSDWPRTHLTSGATIPVEYSNWAAHPGDFRVYLTKPGWSPTSELGWDDLELIQTVTNPPQQGSPGTDGGHYYWDLALPSGRSGDALIFMQWVRSDSQENFFSCSDVVFDGG
modifications: Streptomyces coelicolor
**Q.** Which “release of soluble native/oxidized cellooligosaccharides from AVICEL” value [8] does the source give for B4 here?
**A.** shows activity on AVICEL® without its CBM2, although lower than the activity of the whole protein

B5: CBP21^H114A: H114A mutant variant of CBP21 (protein, UniProt P9WEM3 28-197, looked up, variant H114A)
AA10 family lytic …: HGYVESPASRAYQCKLQLNTQCGSVQYEPQSVEGLKGFPQAGPADGHIASADKSTFFELDQQTPTRWNKLNLKTGPNSFTWKLTARASTTSWRYFITKPNWDASQPLTRASFDLTPFCQFNDGGAIPAAQVTHQCNIPADRSGSHVILAVWDIADTANAFYQAIDVNLSK
**Q.** With B5 as the molecule, how does the “production of soluble oxidized oligosaccharides from beta-chitin” value [4] read?
**A.** did not lead to production of soluble oxidized oligosaccharides

**Q.** What about the “potentiating effect on chitinase (ChiC) efficiency” value [6] of the same molecule?
**A.** unable to boost chitinase activity
